Holding throughout (test): ELISA
Assay [1] addresses T1, CD27-huFc (UniProt P26842 20-191).
T1 sequence (looked up): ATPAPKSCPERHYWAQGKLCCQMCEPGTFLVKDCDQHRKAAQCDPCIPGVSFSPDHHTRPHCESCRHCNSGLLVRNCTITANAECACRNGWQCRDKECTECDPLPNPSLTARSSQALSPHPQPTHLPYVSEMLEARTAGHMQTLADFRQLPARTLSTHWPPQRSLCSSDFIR

Assay [2] concerns the target T2, CD27-moFc (UniProt P26842 20-191).
T2 sequence (looked up): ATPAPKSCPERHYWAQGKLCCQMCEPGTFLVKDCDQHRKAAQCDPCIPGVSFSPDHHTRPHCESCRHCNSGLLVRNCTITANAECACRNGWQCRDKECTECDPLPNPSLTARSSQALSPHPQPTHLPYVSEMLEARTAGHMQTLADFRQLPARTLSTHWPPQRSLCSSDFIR

The target in assay [3] is T3, OX40-moFc (UniProt P43489 29-214).
T3 sequence (looked up): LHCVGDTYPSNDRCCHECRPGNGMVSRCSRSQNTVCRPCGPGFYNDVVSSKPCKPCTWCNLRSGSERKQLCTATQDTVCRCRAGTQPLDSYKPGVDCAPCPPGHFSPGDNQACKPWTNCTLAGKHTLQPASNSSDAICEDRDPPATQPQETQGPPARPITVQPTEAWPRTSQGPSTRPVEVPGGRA

For assay [4], the target named is T4, mOX40-Fc (mouse, UniProt P47741 20-211).
T4 sequence (looked up): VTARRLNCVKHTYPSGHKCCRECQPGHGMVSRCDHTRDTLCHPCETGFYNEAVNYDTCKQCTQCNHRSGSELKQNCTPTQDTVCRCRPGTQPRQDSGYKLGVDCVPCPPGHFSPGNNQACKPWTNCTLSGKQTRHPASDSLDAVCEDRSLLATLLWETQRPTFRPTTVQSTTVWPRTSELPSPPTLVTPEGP

The target of assay [5] is T5, m4-1BB-Fc (mouse, UniProt P20334 24-187).
T5 sequence (looked up): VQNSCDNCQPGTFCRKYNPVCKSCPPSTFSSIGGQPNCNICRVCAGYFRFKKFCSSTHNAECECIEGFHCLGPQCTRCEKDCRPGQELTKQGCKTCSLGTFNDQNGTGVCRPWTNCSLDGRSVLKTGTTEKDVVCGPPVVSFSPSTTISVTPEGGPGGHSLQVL

Assay [6] addresses T6, mCD27-Fc (mouse, UniProt P41272 24-182).
T6 sequence (looked up): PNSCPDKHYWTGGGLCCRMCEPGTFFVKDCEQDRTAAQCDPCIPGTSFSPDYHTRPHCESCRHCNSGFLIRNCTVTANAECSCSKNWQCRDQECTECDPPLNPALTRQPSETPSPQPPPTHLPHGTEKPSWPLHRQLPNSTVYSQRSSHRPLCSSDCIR

Assay [7] has as its target T7, mCD40-Fc (mouse, UniProt P27512 20-193).
T7 sequence (looked up): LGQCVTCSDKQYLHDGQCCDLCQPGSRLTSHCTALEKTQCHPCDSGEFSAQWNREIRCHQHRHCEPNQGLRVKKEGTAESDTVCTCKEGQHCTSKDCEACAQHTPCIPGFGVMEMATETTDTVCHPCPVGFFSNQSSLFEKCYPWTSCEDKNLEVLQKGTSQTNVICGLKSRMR

B1: scCD27L-scOX40L-Fc (Fc fusion, human)
chain 1: SLGWDVAELQLNHTGPQQDPRLYWQGGPALGRSFLHGPELDKGQLRIHRDGIYMVHIQVTLAICSSTTASRHHPTTLAVGICSPASRSISLLRLSFHQGCTIASQRLTPLARGDTLCTNLTGTLLPSRNTDETFFGVQWVRPGGSLGWDVAELQLNHTGPQQDPRLYWQGGPALGRSFLHGPELDKGQLRIHRDGIYMVHIQVTLAICSSTTASRHHPTTLAVGICSPASRSISLLRLSFHQGCTIASQRLTPLARGDTLCTNLTGTLLPSRNTDETFFGVQWVRPGGSLGWDVAELQLNHTGPQQDPRLYWQGGPALGRSFLHGPELDKGQLRIHRDGIYMVHIQVTLAICSSTTASRHHPTTLAVGICSPASRSISLLRLSFHQGCTIASQRLTPLARGDTLCTNLTGTLLPSRNTDETFFGVQWVRP
chain 2: QVSHRYPRIQSIKVQFTEYKKEKGFILTSQKEDEIMKVQNNSVIINCDGFYLISLKGYFSQEVNISLHYQKDEEPLFQLKKVRSVNSLMVASLTYKDKVYLNVTTDNTSLDDFHVNGGELILIHQNPGEFCVLGGGGSGGGGSGGGGSQVSHRYPRIQSIKVQFTEYKKEKGFILTSQKEDEIMKVQNNSVIINCDGFYLISLKGYFSQEVNISLHYQKDEEPLFQLKKVRSVNSLMVASLTYKDKVYLNVTTDNTSLDDFHVNGGELILIHQNPGEFCVLGGGGSGGGGSGGGGSQVSHRYPRIQSIKVQFTEYKKEKGFILTSQKEDEIMKVQNNSVIINCDGFYLISLKGYFSQEVNISLHYQKDEEPLFQLKKVRSVNSLMVASLTYKDKVYLNVTTDNTSLDDFHVNGGELILIHQNPGEFCVL
The term EC50 denotes the concentration needed to bring the measured effect to its halfway point. Consider B1, for which the EC50 in assay [1], in assay [2] and in assay [3] was 0.3 nM in each case.

B2: msc4-1BBL-mscOX40L-mFc (Fc fusion)
chain 1: RTEPRPALTITTSPNLGTRENNADQVTPVSHIGCPNTTQQGSPVFAKLLAKNQASLCNTTLNWHSQDGAGSSYLSQGLRYEEDKKELVVDSPGLYYVFLELKLSPTFTNTGHKVQGWVSLVLQAKPQVDDFDNLALTVELFPCSMENKLVDRSWSQLLLLKAGHRLSVGLRAYLHGAQDAYRDWELSYPNTTSFGLFLVKPDNPWEGGGGSGGGGSGGGGSGGGGSRTEPRPALTITTSPNLGTRENNADQVTPVSHIGCPNTTQQGSPVFAKLLAKNQASLCNTTLNWHSQDGAGSSYLSQGLRYEEDKKELVVDSPGLYYVFLELKLSPTFTNTGHKVQGWVSLVLQAKPQVDDFDNLALTVELFPCSMENKLVDRSWSQLLLLKAGHRLSVGLRAYLHGAQDAYRDWELSYPNTTSFGLFLVKPDNPWEGGGGSGGGGSGGGGSGGGGSRTEPRPALTITTSPNLGTRENNADQVTPVSHIGCPNTTQQGSPVFAKLLAKNQASLCNTTLNWHSQDGAGSSYLSQGLRYEEDKKELVVDSPGLYYVFLELKLSPTFTNTGHKVQGWVSLVLQAKPQVDDFDNLALTVELFPCSMENKLVDRSWSQLLLLKAGHRLSVGLRAYLHGAQDAYRDWELSYPNTTSFGLFLVKPDNPWE
chain 2: SSSPAKDPPIQRLRGAVTRCEDGQLFISSYKNEYQTMEVQNNSVVIKCDGLYIIYLKGSFFQEVKIDLHFREDHNPISIPMLNDGRRIVFTVVASLAFKDKVYLTVNAPDTLCEHLQINDGELIVVQLTPGYCAPEGSYHSTVNQVPLGGGGSGGGGSGGGGSSSSPAKDPPIQRLRGAVTRCEDGQLFISSYKNEYQTMEVQNNSVVIKCDGLYIIYLKGSFFQEVKIDLHFREDHNPISIPMLNDGRRIVFTVVASLAFKDKVYLTVNAPDTLCEHLQINDGELIVVQLTPGYCAPEGSYHSTVNQVPLGGGGSGGGGSGGGGSSSSPAKDPPIQRLRGAVTRCEDGQLFISSYKNEYQTMEVQNNSVVIKCDGLYIIYLKGSFFQEVKIDLHFREDHNPISIPMLNDGRRIVFTVVASLAFKDKVYLTVNAPDTLCEHLQINDGELIVVQLTPGYCAPEGSYHSTVNQVPL
Consider B2, for which the values for the EC50 in assay [4] and in assay [5] were 55.2 nM and 9.2 nM, respectively.

B3: mscCD40L-mscCD27L-mFc (Fc fusion)
chain 1: HRRLDKVEEEVNLHEDFVFIKKLKRCNKGEGSLSLLNCEEMRRQFEDLVKDITLNKEEKKENSFEMQRGDEDPQIAAHVVSEANSNAASVLQWAKKGYYTMKSNLVMLENGKQLTVKREGLYYVYTQVTFCSNREPSSQRPFIVGLWLKPSSGSERILLKAANTHSSSQLCEQQSVHLGGVFELQAGASVFVNVTEASQVIHRVGFSSFGLLKLGGHRRLDKVEEEVNLHEDFVFIKKLKRCNKGEGSLSLLNCEEMRRQFEDLVKDITLNKEEKKENSFEMQRGDEDPQIAAHVVSEANSNAASVLQWAKKGYYTMKSNLVMLENGKQLTVKREGLYYVYTQVTFCSNREPSSQRPFIVGLWLKPSSGSERILLKAANTHSSSQLCEQQSVHLGGVFELQAGASVFVNVTEASQVIHRVGFSSFGLLKLGGHRRLDKVEEEVNLHEDFVFIKKLKRCNKGEGSLSLLNCEEMRRQFEDLVKDITLNKEEKKENSFEMQRGDEDPQIAAHVVSEANSNAASVLQWAKKGYYTMKSNLVMLENGKQLTVKREGLYYVYTQVTFCSNREPSSQRPFIVGLWLKPSSGSERILLKAANTHSSSQLCEQQSVHLGGVFELQAGASVFVNVTEASQVIHRVGFSSFGLLKL
chain 2: SKQQQRLLEHPEPHTAELQLNLTVPRKDPTLRWGAGPALGRSFTHGPELEEGHLRIHQDGLYRLHIQVTLANCSSPGSTLQHRATLAVGICSPAAHGISLLRGRFGQDCTVALQRLTYLVHGDVLCTNLTLPLLPSRNADETFFGVQWICPGGSKQQQRLLEHPEPHTAELQLNLTVPRKDPTLRWGAGPALGRSFTHGPELEEGHLRIHQDGLYRLHIQVTLANCSSPGSTLQHRATLAVGICSPAAHGISLLRGRFGQDCTVALQRLTYLVHGDVLCTNLTLPLLPSRNADETFFGVQWICPGGSKQQQRLLEHPEPHTAELQLNLTVPRKDPTLRWGAGPALGRSFTHGPELEEGHLRIHQDGLYRLHIQVTLANCSSPGSTLQHRATLAVGICSPAAHGISLLRGRFGQDCTVALQRLTYLVHGDVLCTNLTLPLLPSRNADETFFGVQWICP
As to B3, the EC50 in assay [6] was determined as 0.4 nM; in assay [7], 1.4 nM.

Source of the values: publication PMC8786347 (Oncoimmunology, 2022).
